B1: RSPH3 (parent)
chain: VDVQTELYLEEIADRIIEVDMECQ

Variants of: B1
Assay: protein stability index of a GFP-peptide fusion (GPS, HEK-293T) (PSI 1-6); higher = more stable
Details: c terminus: a fixed tail appended
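Note: lentivirally expressed fusions sorted by FACS into six bins by GFP to DsRed ratio, PSI derived from sequencing read proportions per bin multiplied by bin number.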

Protein stability index, by site and new letter:
M21: V 1.99, K 2.27, N 2.99, E 3.85, W 1.76, I 1.91, G 4.38, P 4.45, Y 1.94, T 3.43, S 3.85, H 3.59, C 2.38, A 3.23, L 1.66, F 1.47, Q 2.49, R 3.8, D 4.54
E18: W 2.23, A 2.22, S 2.44, Y 2.03, H 2.31, C 2.48, M 1.94, P 2.79, F 2.26, K 2.59, D 3.12, Q 1.57, T 2.23, R 2.51, V 2.85, N 2.7, G 2.86, I 2.01
E11: C 2.83, Y 2.88, M 3.38, P 2.98, F 1.89, I 3.16, T 2.41, K 2.85, A 1.95, R 2.22, N 3.26, S 2.02, G 2.48, Q 2.73, H 2.23, D 1.82
D14: P 2.45, A 1.94, Q 2.32, W 3.47, E 1.92, S 2.08, K 1.93, N 2.11, T 1.93, H 1.55
Y8: C 3.04, F 1.92, I 1.71, M 2.34, G 4.65, R 3.11, E 4.48, H 3.85, V 2.85, T 3.5, P 3.77, S 3.65, Q 4.25, N 4, D 4.25, A 4.03, W 2.51
L7: P 3.07, D 2.71, H 3.38, S 3.06, E 4.3, G 4.11, N 3.96, M 1.73, V 1.45, A 3.2, C 3.01, R 2.65, Y 2.34, Q 3.41, T 3, I 2.1, K 3.96, F 1.79, W 2.04
E22: I 2.81, A 1.99, M 2.83, S 2.22, C 1.89, N 2.86, F 1.9, R 2.03, Q 2.01, P 2.88, L 2.53, G 3.05, H 2.06, D 2.77, K 2.27
Q4: N 1.85, H 3.22, L 1.97, F 3.48, S 2.7, C 2.29, K 2.43, E 2.32, V 3.19, P 2.39, G 3.62, Y 1.66, D 1.45, T 2.47, A 2.19, W 2.27, M 2.07
V3: P 3.36, H 2.4, T 2.92, R 3.38, W 2.14, Q 3.04, E 2.66, L 3.01, N 2.99, Y 1.85, K 2.7, G 3.74, M 2.26, S 2.56
I12: T 4.42, C 3.22, K 4.77, Q 4.37, G 4.63, V 2.91, E 4.84, W 1.12, H 4.28, M 3.11, R 4.25, F 1.61, L 1.72, D 4.39, S 4.98, P 4.53, Y 2.96, A 4.36, N 4.46
D20: G 1.85, K 2.24, T 3.29

Source: the supplement of paper PMC10567573
